In patent US20240181075A1 (published 2024):

What was measured:
Monkey N4 = assay: flow cytometry, transfected CHO cells
Mouse N4 [1] = assay: flow cytometry, transfected CHO cells; ambiguous fit
Rat N4 [2] = assay: as above
Rat N4 [3] = assay: flow cytometry, transfected CHO cells
Mouse N4 [4] = assay: flow cytometry, transfected CHO cells
[5] = molecular target: T1, human Nectin-4 on cells (CHO cells transfected with human Nectin-4 cDNA); SUM190 tumor cells; normal … (human, UniProt Q96NY8 32-510); assay: flow cytometry, transfected CHO cells
T1 chain: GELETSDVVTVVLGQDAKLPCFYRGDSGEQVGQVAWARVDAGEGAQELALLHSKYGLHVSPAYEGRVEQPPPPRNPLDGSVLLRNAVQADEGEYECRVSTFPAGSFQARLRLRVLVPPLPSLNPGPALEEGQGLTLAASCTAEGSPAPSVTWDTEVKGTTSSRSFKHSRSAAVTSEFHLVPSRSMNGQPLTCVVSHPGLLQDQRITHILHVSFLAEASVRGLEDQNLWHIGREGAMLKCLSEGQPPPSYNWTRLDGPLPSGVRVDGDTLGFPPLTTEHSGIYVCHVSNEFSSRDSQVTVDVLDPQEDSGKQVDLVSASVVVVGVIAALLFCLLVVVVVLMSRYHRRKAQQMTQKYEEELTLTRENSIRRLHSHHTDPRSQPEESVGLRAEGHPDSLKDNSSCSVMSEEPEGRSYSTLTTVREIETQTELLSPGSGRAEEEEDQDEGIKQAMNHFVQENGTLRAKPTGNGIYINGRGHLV

[6] = molecular target: T1, human Nectin-4 on cells (CHO cells …); assay: flow

B1: Ch-15A7.5 (antibody, V domains shown)
VH: EVKLVESGGGLVQPGGSRKLSCAASGFTFSNYGMAWVRQAPGKGPEWVAFISNLAYGINYADTVTGRFTISRENAKNTLYLEMRSLRSEDTAMYYCARGARATGWFAYWGQGTLVTVSA
VL: DIVMTQSQKFMSTSIGDRVSVTCKASQNVDTHVAWYQEKPGQSPKALIYSASYRYSGVPDRFTGSGSGTDFTLTISNVQSEDLADYFCQQYNSYPLTFGGGTKLEIK
**Q.** With B1 as the binder, how does the EC50 (Monkey N4) read?
**A.** Its EC50 is 1.22 nM.

**Q.** And the EC50 (Mouse N4 [1])?
**A.** The EC50 was roughly 31.2 nM.

**Q.** What about the EC50 (Rat N4 [2]) of the same binder?
**A.** The EC50 was roughly 5.16 nM.

B2: Ch-5A12.2 (antibody, V domains shown)
VH: QIQLQQSGAELVKPGASVTLSCKTSGFTFNSMYISWLKQKPGQSLEWIAWIYAGTGGTRFNQKFTGKVQLTVDTSSSTAYMQFSSLTTDDSAIYYCAIRSGFVPMDYWGQGTSVTVSS
VL: SIVMTQTPKFLLVSAGDRVTITCKASQSVSNDVAWYQQKPGQSPKLLIYYASNRYTGVPDRFTGSGYGTDFTFTISTVQAEDLAVYFCQQDYSSPWTFGGGTKLEIK
**Q.** What does the source list for B2?
**A.** EC50 (Monkey N4): 0.134 nM; EC50 (Rat N4 [3]): 0.478 nM; EC50 (Mouse N4 [1]): ~205 nM

B3: HA22 (antibody, V domains shown)
VH: EVQLVESGGGLVQPGGSLRLSCAASGFTFSSYNMNWVRQAPGKGLEWVSYISSSSSTIYYADSVKGRFTISRDNAKNSLSLQMNSLRDEDTAVYYCARAYYYGMDVWGQGTTVTVSS
VL: DIQMTQSPSSVSASVGDRVTITCRASQGISGWLAWYQQKPGKAPKFLIYAASTLQSGVPSRFSGSGSGTDFTLTISSLQPEDFATYYCQQANSFPPTFGGGTKVEIK
**Q.** Which results are given for B3?
**A.** EC50 (Mouse N4 [4]): 41.1 nM; EC50 (Monkey N4): 0.0678 nM; EC50 (Rat N4 [3]): 0.097 nM

B4: Ch-3A1.4 (antibody, V domains shown)
VH: DVQLQESGPSLVKPSQTLSLTCSVTGDSITSGYWNWIRKFPGNKLEYMGYISNSGITYYNPSLKSRISITRDTSKNQYFLQLNSVTAEDTATYYCTRFGSTMILYYTMDYWGQGTSVTVSS
VL: DIVMTQSPVTLSVTPGDRVSLSCRASQSISDYLHWYQQKSQESPRLLIKYASKSISGIPSRFSGSGSGSNFTLSINSVEPEDVGVYYCQNGHSFPLTFGAGTKLELK
**Q.** B4 was tested. Which EC50 [5] did it give?
**A.** Its EC50 is 2.83 nM.

B5: Ch-15A7.5 (chimeric anti-Nectin-4 monoclonal antibody 15A7.5) (antibody, V domains shown)
VH: EVKLVESGGGLVQPGGSRKLSCAASGFTFSNYGMAWVRQAPGKGPEWVAFISNLAYGINYADTVTGRFTISRENAKNTLYLEMRSLRSEDTAMYYCARGARATGWFAYWGQGTLVTVSA
VL: DIVMTQSQKFMSTSIGDRVSVTCKASQNVDTHVAWYQEKPGQSPKALIYSASYRYSGVPDRFTGSGSGTDFTLTISNVQSEDLADYFCQQYNSYPLTFGGGTKLEIK
**Q.** B5 was tested. Which EC50 [5] did it give?
**A.** The EC50 was 0.692 nM.

B6: HA22 (Enfortumab), human monoclonal anti-Nectin-4 antibody (antibody, V domains shown)
VH: EVQLVESGGGLVQPGGSLRLSCAASGFTFSSYNMNWVRQAPGKGLEWVSYISSSSSTIYYADSVKGRFTISRDNAKNSLSLQMNSLRDEDTAVYYCARAYYYGMDVWGQGTTVTVSS
VL: DIQMTQSPSSVSASVGDRVTITCRASQGISGWLAWYQQKPGKAPKFLIYAASTLQSGVPSRFSGSGSGTDFTLTISSLQPEDFATYYCQQANSFPPTFGGGTKVEIK
**Q.** With B6 as the binder, how does the EC50 [6] read?
**A.** Its EC50 is 0.346 nM.

B7: Ch-5A12.2 (chimeric anti-Nectin-4 monoclonal antibody 5A12.2) (antibody, V domains shown)
VH: QIQLQQSGAELVKPGASVTLSCKTSGFTFNSMYISWLKQKPGQSLEWIAWIYAGTGGTRFNQKFTGKVQLTVDTSSSTAYMQFSSLTTDDSAIYYCAIRSGFVPMDYWGQGTSVTVSS
VL: SIVMTQTPKFLLVSAGDRVTITCKASQSVSNDVAWYQQKPGQSPKLLIYYASNRYTGVPDRFTGSGYGTDFTFTISTVQAEDLAVYFCQQDYSSPWTFGGGTKLEIK
**Q.** How did the EC50 [5] turn out when B7 was run?
**A.** The EC50 was 0.37 nM.
